Reference: the supplement of paper PMC5998384

Experiments:
HeLa Kyoto [1] = test: thermal stability score vs G1/S (z-score of summed log2 fold changes over temperatures); higher = more thermally stable than in G1/S
HeLa Kyoto [2] = test: solubility change mitosis vs G1/S (difference of NP-40 vs SDS log2 ratios) (log2 ratio difference); higher = more soluble in mitosis
HeLa Kyoto [3] = test: solubility in G1/S (NP-40 vs SDS abundance) (log2 ratio); higher = more soluble; conditions: cell cycle stage: G1/S
HeLa Kyoto [4] = test: melting temperature (median over replicates), in situ; higher = more thermally stable
[5] = cell cycle stage: early G1 (4.5 h after nocodazole release)
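Throughout, for melting temperature (median over replicates), in situ: HeLa Kyoto cells synchronized by double thymidine or nocodazole block, proteins quantified by TMT10plex mass spectrometry, three independent biological replicates.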
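Throughout, for solubility change mitosis vs G1/S (difference of NP-40 vs SDS log2 ratios): synchronized HeLa Kyoto cells (double thymidine block for G1/S, nocodazole release for mitosis), protein amounts in NP-40 versus SDS lysates quantified by mass spectrometry, three biological replicates.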
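Throughout, for solubility in G1/S (NP-40 vs SDS abundance): HeLa Kyoto cells arrested at G1/S by double thymidine block, proteins quantified by TMT10plex mass spectrometry in mild NP-40 versus SDS extracts, three biological replicates.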
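Throughout, for thermal stability score vs G1/S (z-score of summed log2 fold changes over temperatures): synchronized HeLa Kyoto cells, proteins quantified by TMT10plex mass spectrometry, three biological replicates, mitosis taken 0.5 h after nocodazole release, G1/S directly after double thymidine block.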

XPO4, sequence (chain, as listed by the source): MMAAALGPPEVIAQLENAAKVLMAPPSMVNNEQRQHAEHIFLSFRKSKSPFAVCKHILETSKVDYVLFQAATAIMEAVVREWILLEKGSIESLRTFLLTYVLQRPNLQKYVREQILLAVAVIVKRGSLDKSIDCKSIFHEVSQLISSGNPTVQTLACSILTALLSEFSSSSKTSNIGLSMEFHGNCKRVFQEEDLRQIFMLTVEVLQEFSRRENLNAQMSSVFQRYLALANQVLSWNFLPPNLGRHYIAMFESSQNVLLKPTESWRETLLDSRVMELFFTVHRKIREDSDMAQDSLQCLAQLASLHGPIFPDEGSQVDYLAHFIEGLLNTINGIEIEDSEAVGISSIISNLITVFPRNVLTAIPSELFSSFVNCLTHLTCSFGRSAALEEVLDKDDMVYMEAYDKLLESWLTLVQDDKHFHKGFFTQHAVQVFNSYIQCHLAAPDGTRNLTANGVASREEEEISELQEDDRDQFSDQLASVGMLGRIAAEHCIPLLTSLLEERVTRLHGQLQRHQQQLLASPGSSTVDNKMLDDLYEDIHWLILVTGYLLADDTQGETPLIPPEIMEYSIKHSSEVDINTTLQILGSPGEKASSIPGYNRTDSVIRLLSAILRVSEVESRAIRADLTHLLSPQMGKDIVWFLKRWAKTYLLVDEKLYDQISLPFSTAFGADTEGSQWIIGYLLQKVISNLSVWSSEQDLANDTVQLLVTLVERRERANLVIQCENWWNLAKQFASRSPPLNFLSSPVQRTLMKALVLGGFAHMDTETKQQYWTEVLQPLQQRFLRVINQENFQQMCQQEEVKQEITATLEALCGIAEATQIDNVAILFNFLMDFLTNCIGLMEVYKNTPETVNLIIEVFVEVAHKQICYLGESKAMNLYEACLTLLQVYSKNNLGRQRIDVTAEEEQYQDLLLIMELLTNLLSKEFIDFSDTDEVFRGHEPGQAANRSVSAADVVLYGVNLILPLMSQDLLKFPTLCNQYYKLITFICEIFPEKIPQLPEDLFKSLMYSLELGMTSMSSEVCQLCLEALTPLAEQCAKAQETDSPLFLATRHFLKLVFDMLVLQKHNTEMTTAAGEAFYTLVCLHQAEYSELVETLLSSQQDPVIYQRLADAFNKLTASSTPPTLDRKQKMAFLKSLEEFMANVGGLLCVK

| Substance | thermal stability score (HeLa Kyoto [1]; [5]) | thermal stability score (HeLa Kyoto [1]; cell cycle stage: mitosis) | solubility change mitosis (log2) (HeLa Kyoto [2]) | solubility in G1/S (log2) (HeLa Kyoto [3]) | melting temperature (HeLa Kyoto [4]; cell cycle stage: G1/S) | melting temperature (HeLa Kyoto [4]; cell cycle stage: mitosis) |
| --- | --- | --- | --- | --- | --- | --- |
| MSYDYHQNWGRDGGPRSSGGGYGGGPAGGHGGNRGSGGGGGGGGGGRGGRGRHPGHLKGREIGMWYAKKQGQKNKEAERQERAVVHMDERREEQIVQLLNSVQAKNDKESEAQISWFAPEDHGYGTEVSTKNTPCSENKLDIQEKKLINQEKKMFRIRNRSYIDRDSEYLLQENEPDGTLDQKLLEDLQKKKNDLRYIEMQHFREKLPSYGMQKELVNLIDNHQVTVISGETGCGKTTQVTQFILDNYIERGKGSACRIVCTQPRRISAISVAERVAAERAESCGSGNSTGYQIRLQSRLPRKQGSILYCTTGIILQWLQSDPYLSSVSHIVLDEIHERNLQSDVLMTVVKDLLNFRSDLKVILMSATLNAEKFSEYFGNCPMIHIPGFTFPVVEYLLEDVIEKIRYVPEQKEHRSQFKRGFMQGHVNRQEKEEKEAIYKERWPDYVRELRRRYSASTVDVIEMMEDDKVDLNLIVALIRYIVLEEEDGAILVFLPGWDNISTLHDLLMSQVMFKSDKFLIIPLHSLMPTVNQTQVFKRTPPGVRKIVIATNIAETSITIDDVVYVIDGGKIKETHFDTQNNISTMSAEWVSKANAKQRKGRAGRVQPGHCYHLYNGLRASLLDDYQLPEILRTPLEELCLQIKILRLGGIAYFLSRLMDPPSNEAVLLSIRHLMELNALDKQEELTPLGVHLARLPVEPHIGKMILFGALFCCLDPVLTIAASLSFKDPFVIPLGKEKIADARRKELAKDTRSDHLTVVNAFEGWEEARRRGFRYEKDYCWEYFLSSNTLQMLHNMKGQFAEHLLGAGFVSSRNPKDPESNINSDNEKIIKAVICAGLYPKVAKIRLNLGKKRKMVKVYTKTDGLVAVHPKSVNVEQTDFHYNWLIYHLKMRTSSIYLYDCTEVSPYCLLFFGGDISIQKDNDQETIAVDEWIVFQSPARIAHLVKELRKELDILLQEKIESPHPVDWNDTKSRDCAVLSAIIDLIKTQEKATPRNFPPRFQDGYYS [DHX36] | 0.36 | 0.349 | -0.0322 | -0.25 | 50.8 °C | 51.5 °C |
| MADSGLLLKRGSCRSTWLRVRKARPQLILSRRPRRRLGSLRWCGRRRLRWRLLQAQASGVDWREGARQVSRAAAARRPNTATPSPIPSPTPASEPESEPELESASSCHRPLLIPPVRPVGPGRALLLLPVEQGFTFSGICRVTCLYGQVQVFGFTISQGQPAQDIFSVYTHSCLSIHALHYSQPEKSKKELKREARNLLKSHLNLDDRRWSMQNFSPQCSIVLLEHLKTATVNFITSYPGSSYIFVQESPTPQIKPEYLALRSVGIRREKKRKGLQLTESTLSALEELVNVSCEEVDGCPVILVCGSQDVGKSTFNRYLINHLLNSLPCVDYLECDLGQTEFTPPGCISLLNITEPVLGPPFTHLRTPQKMVYYGKPSCKNNYENYIDIVKYVFSAYKRESPLIVNTMGWVSDQGLLLLIDLIRLLSPSHVVQFRSDHSKYMPDLTPQYVDDMDGLYTKSKTKMRNRRFRLAAFADALEFADEEKESPVEFTGHKLIGVYTDFAFRITPRNRESHNKILRDLSILSYLSQLQPPMPKPLSPLHSLTPYQVPFNAVALRITHSDVAPTHILYAVNASWVGLCKIQDDVRGYTNGPILLAQTPICDCLGFGICRGIDMEKRLYHILTPVPPEELRTVNCLLVGAIAIPHCVLKCQRGIEGTVPYVTTDYNFKLPGASEKIGAREPEEAHKEKPYRRPKFCRKMK [NOL9] | 1.99 | 1.53 | 0.92 | -1.82 | – | 51.3 °C |
| MDPLGAPSQFVDVDTLPSWGDSCQDELNSSDTTAEIFQEDTVRSPFLYNKDVNGKVVLWKGDVALLNCTAIVNTSNESLTDKNPVSESIFMLAGPDLKEDLQKLKGCRTGEAKLTKGFNLAARFIIHTVGPKYKSRYRTAAESSLYSCYRNVLQLAKEQSMSSVGFCVINSAKRGYPLEDATHIALRTVRRFLEIHGETIEKVVFAVSDLEEGTYQKLLPLYFPRSLKEENRSLPYLPADIGNAEGEPVVPERQIRISEKPGAPEDNQEEEDEGLGVDLSFIGSHAFARMEGDIDKQRKLILQGQLSEAALQKQHQRNYNRWLCQARSEDLSDIASLKALYQTGVDNCGRTVMVVVGRNIPVTLIDMDKALLYFIHVMDHIAVKEYVLVYFHTLTSEYNHLDSDFLKKLYDVVDVKYKRNLKAVYFVHPTFRSKVSTWFFTTFSVSGLKDKIHHVDSLHQLFSAISPEQIDFPPFVLEYDARENGPYYTSYPPSPDL [GDAP2] | 0.35 | 0.405 | -0.148 | 0.111 | 48.2 °C | 49.1 °C |
| MAAAGWRDGSGQEKYRLVVVGGGGVGKSALTIQFIQSYFVTDYDPTIEDSYTKQCVIDDRAARLDILDTAGQEEFGAMREQYMRTGEGFLLVFSVTDRGSFEEIYKFQRQILRVKDRDEFPMILIGNKADLDHQRQVTQEEGQQLARQLKVTYMEASAKIRMNVDQAFHELVRVIRKFQEQECPPSPEPTRKEKDKKGCHCVIF [RRAS2] | 1.24 | 1.12 | -0.0849 | -0.172 | 55.4 °C | 55.3 °C |
| MADKTPGGSQKASSKTRSSDVHSSGSSDAHMDASGPSDSDMPSRTRPKSPRKHNYRNESARESLCDSPHQNLSRPLLENKLKAFSIGKMSTAKRTLSKKEQEELKKKEDEKAAAEIYEEFLAAFEGSDGNKVKTFVRGGVVNAAKEEHETDEKRGKIYKPSSRFADQKNPPNQSSNERPPSLLVIETKKPPLKKGEKEKKKSNLELFKEELKQIQEERDERHKTKGRLSRFEPPQSDSDGQRRSMDAPSRRNRSSGVLDDYAPGSHDVGDPSTTNLYLGNINPQMNEEMLCQEFGRFGPLASVKIMWPRTDEERARERNCGFVAFMNRRDAERALKNLNGKMIMSFEMKLGWGKAVPIPPHPIYIPPSMMEHTLPPPPSGLPFNAQPRERLKNPNAPMLPPPKNKEDFEKTLSQAIVKVVIPTERNLLALIHRMIEFVVREGPMFEAMIMNREINNPMFRFLFENQTPAHVYYRWKLYSILQGDSPTKWRTEDFRMFKNGSFWRPPPLNPYLHGMSEEQETEAFVEEPSKKGALKEEQRDKLEEILRGLTPRKNDIGDAMVFCLNNAEAAEEIVDCITESLSILKTPLPKKIARLYLVSDVLYNSSAKVANASYYRKFFETKLCQIFSDLNATYRTIQGHLQSENFKQRVMTCFRAWEDWAIYPEPFLIKLQNIFLGLVNIIEEKETEDVPDDLDGAPIEEELDGAPLEDVDGIPIDATPIDDLDGVPIKSLDDDLDGVPLDATEDSKKNEPIFKVAPSKWEAVDESELEAQAVTTSKWELFDQHEESEEEENQNQEEESEDEEDTQSSKSEEHHLYSNPIKEEMTESKFSKYSEMSEEKRAKLREIELKVMKFQDELESGKRPKKPGQSFQEQVEHYRDKLLQREKEKELERERERDKKDKEKLESRSKDKKEKDECTPTRKERKRRHSTSPSPSRSSSGRRVKSPSPKSERSERSERSHKESSRSRSSHKDSPRDVSKKAKRSPSGSRTPKRSRRSRSRSPKKSGKKSRSQSRSPHRSHKKSKKNKH [U2SURP] | 1.49 | 6.77 | 0.526 | -0.673 | 47.9 °C | 49.5 °C |
| MDRSAEFRKWKAQCLSKADLSRKGSVDEDVVELVQFLNMRDQFFTTSSCAGRILLLDRGINGFEVQKQNCCWLLVTHKLCVKDDVIVALKKANGDATLKFEPFVLHVQCRQLQDAQILHSMAIDSGFRNSGITVGKRGKTMLAVRSTHGLEVPLSHKGKLMVTEEYIDFLLNVANQKMEENKKRIERFYNCLQHALERETMTNLHPKIKEKNNSSYIHKKKRNPEKTRAQCITKESDEELENDDDDDLGINVTIFPEDY [TYW3] | -0.67 | -1.25 | -0.194 | 0.102 | 55 °C | 54.9 °C |
| XPO4 | 0.898 | 0.432 | -0.113 | -0.0631 | 52.4 °C | 52 °C |
| MFLYNLTLQRATGISFAIHGNFSGTKQQEIVVSRGKILELLRPDPNTGKVHTLLTVEVFGVIRSLMAFRLTGGTKDYIVVGSDSGRIVILEYQPSKNMFEKIHQETFGKSGCRRIVPGQFLAVDPKGRAVMISAIEKQKLVYILNRDAAARLTISSPLEAHKANTLVYHVVGVDVGFENPMFACLEMDYEEADNDPTGEAAANTQQTLTFYELDLGLNHVVRKYSEPLEEHGNFLITVPGGSDGPSGVLICSENYITYKNFGDQPDIRCPIPRRRNDLDDPERGMIFVCSATHKTKSMFFFLAQTEQGDIFKITLETDEDMVTEIRLKYFDTVPVAAAMCVLKTGFLFVASEFGNHYLYQIAHLGDDDEEPEFSSAMPLEEGDTFFFQPRPLKNLVLVDELDSLSPILFCQIADLANEDTPQLYVACGRGPRSSLRVLRHGLEVSEMAVSELPGNPNAVWTVRRHIEDEFDAYIIVSFVNATLVLSIGETVEEVTDSGFLGTTPTLSCSLLGDDALVQVYPDGIRHIRADKRVNEWKTPGKKTIVKCAVNQRQVVIALTGGELVYFEMDPSGQLNEYTERKEMSADVVCMSLANVPPGEQRSRFLAVGLVDNTVRIISLDPSDCLQPLSMQALPAQPESLCIVEMGGTEKQDELGERGSIGFLYLNIGLQNGVLLRTVLDPVTGDLSDTRTRYLGSRPVKLFRVRMQGQEAVLAMSSRSWLSYSYQSRFHLTPLSYETLEFASGFASEQCPEGIVAISTNTLRILALEKLGAVFNQVAFPLQYTPRKFVIHPESNNLIIIETDHNAYTEATKAQRKQQMAEEMVEAAGEDERELAAEMAAAFLNENLPESIFGAPKAGNGQWASVIRVMNPIQGNTLDLVQLEQNEAAFSVAVCRFSNTGEDWYVLVGVAKDLILNPRSVAGGFVYTYKLVNNGEKLEFLHKTPVEEVPAAIAPFQGRVLIGVGKLLRVYDLGKKKLLRKCENKHIANYISGIQTIGHRVIVSDVQESFIWVRYKRNENQLIIFADDTYPRWVTTASLLDYDTVAGADKFGNICVVRLPPNTNDEVDEDPTGNKALWDRGLLNGASQKAEVIMNYHVGETVLSLQKTTLIPGGSESLVYTTLSGGIGILVPFTSHEDHDFFQHVEMHLRSEHPPLCGRDHLSFRSYYFPVKNVIDGDLCEQFNSMEPNKQKNVSEELDRTPPEVSKKLEDIRTRYAF [SF3B3] | -1 | -1.81 | 0.0933 | -0.389 | 52.4 °C | 51.6 °C |
| MPYLGSEDVVKELKKALCNPHIQADRLRYRNVIQRVIRYMTQGLDMSGVFMEMVKASATVDIVQKKLVYLYMCTYAPLKPDLALLAINTLCKDCSDPNPMVRGLALRSMCSLRMPGVQEYIQQPILNGLRDKASYVRRVAVLGCAKMHNLHGDSEVDGALVNELYSLLRDQDPIVVVNCLRSLEEILKQEGGVVINKPIAHHLLNRMSKLDQWGQAEVLNFLLRYQPRSEEELFDILNLLDSFLKSSSPGVVMGATKLFLILAKMFPHVQTDVLVRVKGPLLAACSSESRELCFVALCHVRQILHSLPGHFSSHYKKFFCSYSEPHYIKLQKVEVLCELVNDENVQQVLEELRGYCTDVSADFAQAAIFAIGGIARTYTDQCVQILTELLGLRQEHITTVVVQTFRDLVWLCPQCTEAVCQALPGCEENIQDSEGKQALIWLLGVHGERIPNAPYVLEDFVENVKSETFPAVKMELLTALLRLFLSRPAECQDMLGRLLYYCIEEEKDMAVRDRGLFYYRLLLVGIDEVKRILCSPKSDPTLGLLEDPAERPVNSWASDFNTLVPVYGKAHWATISKCQGAERCDPELPKTSSFAASGPLIPEENKERVQELPDSGALMLVPNRQLTADYFEKTWLSLKVAHQQVLPWRGEFHPDTLQMALQVVNIQTIAMSRAGSRPWKAYLSAQDDTGCLFLTELLLEPGNSEMQISVKQNEARTETLNSFISVLETVIGTIEEIKS [AP4B1] | -0.012 | 0.298 | -0.136 | -0.123 | 49.3 °C | 49.7 °C |
| MLETLRERLLSVQQDFTSGLKTLSDKSREAKVKSKPRTVPFLPKYSAGLELLSRYEDTWAALHRRAKDCASAGELVDSEVVMLSAHWEKKKTSLVELQEQLQQLPALIADLESMTANLTHLEASFEEVENNLLHLEDLCGQCELERCKHMQSQQLENYKKNKRKELETFKAELDAEHAQKVLEMEHTQQMKLKERQKFFEEAFQQDMEQYLSTGYLQIAERREPIGSMSSMEVNVDMLEQMDLMDISDQEALDVFLNSGGEENTVLSPALGPESSTCQNEITLQVPNPSELRAKPPSSSSTCTDSATRDISEGGESPVVQSDEEEVQVDTALATSHTDREATPDGGEDSDS [DTNBP1] | -0.457 | -0.463 | -0.387 | 0.267 | 54.1 °C | – |
